Broadly, the kon is the second-order rate constant of association. A high value points to faster complex formation. By stoichiometry N is commonly meant a count of units in the complex or per binding partner.

This passage reports kon and stoichiometry N results from article PMC3998375 (Structure (London, England : 1993), 2013).

Series [1] concerns the target murine B7-H3 ectodomain (mB7H3), wild type (mouse) (UniProt Q8VE98). Description: SEC.
Series [2] deals with the molecule itself. The series is described as follows: SEC.

In series [1], “murine B7-H3 ectodomain (mB7H3), wild type (from UniProt Q8VE98 34-247) (domain or fragment)” gave an on-rate (kon) of 0.000161 M⁻¹ s⁻¹ and a stoichiometry N of 2.

B1: murine B7-H3 ectodomain (mB7H3) I126T (domain or fragment, mouse, UniProt Q8VE98 34-247, looked up)
chain: SEDPVVALVDTDATLRCSFSPEPGFSLAQLNLIWQLTDTKQLVHSFTEGRDQGSAYSNRTALFPDLLVQGNASLRLQRVRVTDEGSYTCFVSTQDFDSAAVSLQVAAPYSKPSMTLEPNKDLRPGNMVTITCSSYQGYPEAEVFWKDGQGVPLTGNVTTSQMANERGLFDVHSVLRVVLGANGTYSCLVRNPVLQQDAHGSVTITGQPLTFPPE
Take B1: in series [2], the association rate constant (kon) turned out to be 4.1e-05 M⁻¹ s⁻¹.

B2: murine B7-H3 ectodomain (mB7H3) FG-loop chimera (I126Y/Q127G/D128G/F129A) (domain or fragment, mouse, UniProt Q8VE98 34-247, looked up)
chain: SEDPVVALVDTDATLRCSFSPEPGFSLAQLNLIWQLTDTKQLVHSFTEGRDQGSAYSNRTALFPDLLVQGNASLRLQRVRVTDEGSYTCFVSYGGADSAAVSLQVAAPYSKPSMTLEPNKDLRPGNMVTITCSSYQGYPEAEVFWKDGQGVPLTGNVTTSQMANERGLFDVHSVLRVVLGANGTYSCLVRNPVLQQDAHGSVTITGQPLTFPPE
The molecule B2 showed a kon in series [2] of 8.3e-06 M⁻¹ s⁻¹.

B3: murine B7-H3 ectodomain (mB7H3) F129A (domain or fragment, mouse, UniProt Q8VE98 34-247, looked up)
chain: SEDPVVALVDTDATLRCSFSPEPGFSLAQLNLIWQLTDTKQLVHSFTEGRDQGSAYSNRTALFPDLLVQGNASLRLQRVRVTDEGSYTCFVSIQDADSAAVSLQVAAPYSKPSMTLEPNKDLRPGNMVTITCSSYQGYPEAEVFWKDGQGVPLTGNVTTSQMANERGLFDVHSVLRVVLGANGTYSCLVRNPVLQQDAHGSVTITGQPLTFPPE
B3 displayed a kon in series [2] of 0.000164 M⁻¹ s⁻¹.
